Data on two molecules can be found in PMC11468923, “Mechanism of degrader-targeted protein ubiquitinability” (Science Advances, 2024).

The target in assay [1] is T1, wild-type ubiquitin (donor ubiquitin, Ub^D) (human, UniProt P0CG48 1-76, C terminus isopeptide-linked to K93 of UBE2R1(C93K, S138C, C191S, C223S)).
T1 construct: wild-type ubiquitin, the cut product of its precursor; Stood in the closed cryo-EM sample as part of the cross-linked conjugate m8
Briefly: cryo-EM structure; closed cross-linked sample: 6 uM NEDD8-CRL2^VHL (1 equiv), MZ1 (1.5 equiv) and Brd4^BD2-Ub(G76S,K48C)-UBE2R1(C93K, S138C, C191S, C223S)-Ub (1.5 equiv), 10 min at 4 C; 20 mM Hepes, 150 mM NaCl, 0.5 mM TCEP, pH 7.5; Krios 300 keV; ~3.7 A. The conditions noted are these: both partners purified.

Assay [2] addresses T2, ^15N-labeled ubiquitin (human wild-type Ub residues 1 to 76) (human, UniProt P0CG48 1-76, uniformly ^15N-labeled; C terminus isopeptide-linked to K93 of UBE2R1(C93K) in the conjugate sample).
T2 construct: ubiquitin, human wild type, residues 1 to 76; also called ^15N-Ub; Ub(^15N); source: E. coli BL21(DE3) Rosetta II, ^15N autoinducing media, purified (His-Trap, TEV, SEC); not shown: His6, N-terminal, cleaved
The experiment in a line: NMR 15N-1H HSQC chemical shift perturbation; ^15N-Ub free against ^15N-Ub isopeptide-linked to UBE2R1(C93K); 150 uM, 298 K, 600 MHz; 20 mM sodium phosphate, 150 mM NaCl, 0.5 mM TCEP, 5% D2O, pH 7.0. The conditions noted are these: both partners purified.

B1: UBE2R1(C93K, S138C, C191S, C223S) (enzyme, human, UniProt P49427 1-236, looked up)
chain: MARPLVPSSQKALLLELKGLQEEPVEGFRVTLVDEGDLYNWEVAIFGPPNTYYEGGYFKARLKFPIDYPYSPPAFRFLTKMWHPNIYETGDVKISILHPPVDDPQSGELPSERWNPTQNVRTILLSVISLLNEPNTFCPANVDASVMYRKWKESKGKDREYTDIIRKQVLGTKVDAERDGVKVPTTLAEYSVKTKAPAPDEGSDLFYDDYYEDGEVEEEADSSFGDDEDDSGTEES
modifications: K93 (C93K) isopeptide-linked to the C terminus of donor ubiquitin; C138 (S138C) cross-linked by BMOE to Ub(K48C,G76S)-Brd4^BD2
notes: UBE2R1 (also known as Cdc34), human, full length; prepared by the same method as UBE2R1(C93K); Stood in the closed cryo-EM sample as part of the cross-linked conjugate m8; also called the E2; source: E. coli BL21(DE3) Rosetta II, purified (His-Trap, ULP1, SEC)
With B1, in assay [1], the binding result was “binds”.

B2: UBE2R1(C93K) (enzyme, human, UniProt P49427 1-236, looked up)
chain: MARPLVPSSQKALLLELKGLQEEPVEGFRVTLVDEGDLYNWEVAIFGPPNTYYEGGYFKARLKFPIDYPYSPPAFRFLTKMWHPNIYETGDVKISILHPPVDDPQSGELPSERWNPTQNVRTILLSVISLLNEPNTFSPANVDASVMYRKWKESKGKDREYTDIIRKQVLGTKVDAERDGVKVPTTLAEYCVKTKAPAPDEGSDLFYDDYYEDGEVEEEADSCFGDDEDDSGTEES
modifications: K93 (C93K) isopeptide-linked to the C terminus of ^15N-labeled ubiquitin
notes: UBE2R1 (also known as Cdc34), human, full length; also called Cdc34 C93K; the E2; source: E. coli BL21(DE3) Rosetta II, purified (His-Trap, ULP1, SEC)
For B2, the binding result in assay [2] was “binds”.
